Experimental data published in the supplement of paper PMC10126150.
± gives the standard deviation of the averaged measurements.

Tested on: ATP
Assay: switch fluorescence ratio, 500 uM ATP over buffer (Cy3 cluster intensity, sum of 5 cycles each) (fold (ratio)); higher = stronger signal-on switching upon ATP binding; sequences stand for … in TCGTCGGCAGCGTCAGATGTGTATAAGAGACAGTTTTTTTTTTTTTTTTTTTTTTTTT…TC
Settings: aptamer strand: ATP DNA aptamer (quencher-CACCTGGGGGAGTATTGCGGAGGAAGG + anchor), 100 nM annealed; ATP concentration: 500 uM
Procedure, shortened: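 Exposure to 500 uM ATP lasted 15 min at 22 °C before imaging, and a selection-buffer image was taken beforehand, for Cy3-labelled switching-strand clusters on a modified Illumina MiSeq flow-cell annealed to 100 nM quencher-labelled ATP aptamer. Five buffer/ATP cycles were run with NaOH stripping and re-annealing between them. The fluorescence ratio per cluster is summed target-cycle over summed buffer-cycle Cy3 intensity, averaged per switch-domain sequence. Clusters outside 100-1000 RFU were excluded.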

For TCAGCATGTA, the switch fluorescence ratio was 1.04 ± 0.019.
TCAGCCGGGA gave a switch fluorescence ratio of 1.08 ± 0.024.
Work on TCAGCCGTTT yielded a switch fluorescence ratio of 1.05 ± 0.054.
TCAGCTCCGT showed a switch fluorescence ratio of 1.08 ± 0.025.
In the case of TCAGGAAAAG, the switch fluorescence ratio is reported as 0.989 ± 0.019.
For TCAGGAAAGG, the switch fluorescence ratio was 1.003 ± 0.0027.
TCAGGCGGGC showed a switch fluorescence ratio of 1.015 ± 0.0058.
In the case of TCAGGCGTTG, the switch fluorescence ratio is reported as 0.971 ± 0.027.
TCAGGCTGGG was tested, and the switch fluorescence ratio was 1.02 ± 0.016.
Work on TCAGGGCTAA yielded a switch fluorescence ratio of 1.02 ± 0.062.
Sequence TCAGGGGATC has a switch fluorescence ratio of 1.01 ± 0.017.
TCAGGGGCGA was tested, and the switch fluorescence ratio was 1.041 ± 0.0078.
In the case of TCAGGGGCGG, the switch fluorescence ratio is reported as 1.04 ± 0.096.
TCAGGGGGGG was tested, and the switch fluorescence ratio was 1.02 ± 0.022.
For TCAGGGGGTT, the switch fluorescence ratio was 1.05 ± 0.037.
TCAGGGGTCT was tested, and the switch fluorescence ratio was 0.994 ± 0.011.
With TCAGGGGTTG the switch fluorescence ratio was 1.09 ± 0.17.
Sequence TCAGGGTGCC has a switch fluorescence ratio of 1.017 ± 0.0094.
Sequence TCAGGTACAT has a switch fluorescence ratio of 1.07 ± 0.014.
Sequence TCAGGTCGCA has a switch fluorescence ratio of 0.9894 ± 0.0054.
With TCAGGTTTGT the switch fluorescence ratio was 1.28 ± 0.34.
TCAGGTTTTT showed a switch fluorescence ratio of 1.13 ± 0.22.
In the case of TCAGTAACGC, the switch fluorescence ratio is reported as 1.05 ± 0.013.
TCAGTAGATC was tested, and the switch fluorescence ratio was 1.02 ± 0.044.
Sequence TCAGTGGGTT has a switch fluorescence ratio of 0.9968 ± 0.0089.
For TCAGTGTCCG, the switch fluorescence ratio was 0.966 ± 0.038.
In the case of TCAGTTGTAC, the switch fluorescence ratio is reported as 1.08 ± 0.011.
TCAGTTGTCA showed a switch fluorescence ratio of 0.981 ± 0.017.
TCAGTTTATG gave a switch fluorescence ratio of 0.961 ± 0.011.
Work on TCATAAAAGC yielded a switch fluorescence ratio of 0.99 ± 0.027.
Work on TCATAATAGC yielded a switch fluorescence ratio of 0.977 ± 0.028.
TCATAATTGG was tested, and the switch fluorescence ratio was 1.005 ± 0.0045.
TCATACTTAA showed a switch fluorescence ratio of 1.04 ± 0.1.
Work on TCATAGATTT yielded a switch fluorescence ratio of 0.988 ± 0.013.
For TCATAGCGGT, the switch fluorescence ratio was 1.095 ± 0.0014.
Work on TCATAGGTGG yielded a switch fluorescence ratio of 1 ± 0.034.
In the case of TCATAGTTCA, the switch fluorescence ratio is reported as 1.03 ± 0.012.
Work on TCATATGAGT yielded a switch fluorescence ratio of 1 ± 0.051.
In the case of TCATATTAAG, the switch fluorescence ratio is reported as 0.9911 ± 0.0028.
Work on TCATCCCTAT yielded a switch fluorescence ratio of 1.1 ± 0.15.
TCATCGCTTT showed a switch fluorescence ratio of 1.08 ± 0.021.
For TCATCTTGGC, the switch fluorescence ratio was 1.02 ± 0.096.
In the case of TCATGAATTT, the switch fluorescence ratio is reported as 0.9885 ± 0.0089.
TCATGACTTT was tested, and the switch fluorescence ratio was 1.012 ± 0.0038.
Sequence TCATGATTTT has a switch fluorescence ratio of 0.9992 ± 0.0048.
Work on TCATGCATGT yielded a switch fluorescence ratio of 1.035 ± 0.01.
TCATGCCCTT gave a switch fluorescence ratio of 1.02 ± 0.033.
For TCATGCTGGT, the switch fluorescence ratio was 1.01 ± 0.024.
In the case of TCATGGAAGG, the switch fluorescence ratio is reported as 1.01 ± 0.026.
TCATGGAGAT was tested, and the switch fluorescence ratio was 0.965 ± 0.033.
Work on TCATGGCCAG yielded a switch fluorescence ratio of 1.04 ± 0.078.
In the case of TCATGGGCTT, the switch fluorescence ratio is reported as 1.01 ± 0.0059.
TCATGGGGCT gave a switch fluorescence ratio of 1.02 ± 0.019.
TCATGGTATT gave a switch fluorescence ratio of 1.01 ± 0.011.
TCATGGTGGG showed a switch fluorescence ratio of 1 ± 0.025.
Sequence TCATGGTTGG has a switch fluorescence ratio of 0.997 ± 0.028.
With TCATGGTTTT the switch fluorescence ratio was 0.977 ± 0.016.
TCATGTGGTA showed a switch fluorescence ratio of 0.9915 ± 0.0093.
For TCATGTGTTG, the switch fluorescence ratio was 0.992 ± 0.045.
For TCATTAAGGC, the switch fluorescence ratio was 1.01 ± 0.015.
In the case of TCATTAAGGG, the switch fluorescence ratio is reported as 0.99105 ± 0.00093.
With TCATTATAAT the switch fluorescence ratio was 1.006 ± 0.0062.
TCATTATTAA was tested, and the switch fluorescence ratio was 1.01 ± 0.027.
With TCATTCGGAG the switch fluorescence ratio was 1.02 ± 0.014.
TCATTCGTTT was tested, and the switch fluorescence ratio was 1.01 ± 0.016.
With TCATTCTGGG the switch fluorescence ratio was 1.008 ± 0.0097.
TCATTGAAGT gave a switch fluorescence ratio of 0.991 ± 0.008.
With TCATTGATCG the switch fluorescence ratio was 0.987 ± 0.011.
TCATTGATTG gave a switch fluorescence ratio of 0.999 ± 0.022.
For TCATTGGGGT, the switch fluorescence ratio was 0.957 ± 0.033.
With TCATTGGGTT the switch fluorescence ratio was 0.977 ± 0.026.
With TCATTGGTAG the switch fluorescence ratio was 1.001 ± 0.0054.
In the case of TCATTGGTT, the switch fluorescence ratio is reported as 0.985 ± 0.021.
For TCATTGTTAT, the switch fluorescence ratio was 0.999 ± 0.036.
TCATTTAAGA was tested, and the switch fluorescence ratio was 0.954 ± 0.014.
For TCATTTAGGG, the switch fluorescence ratio was 0.9893 ± 0.0081.
TCATTTATCA showed a switch fluorescence ratio of 1 ± 0.053.
TCATTTATGG showed a switch fluorescence ratio of 0.999 ± 0.023.
TCATTTATTA gave a switch fluorescence ratio of 1.04 ± 0.023.
Sequence TCATTTATTT has a switch fluorescence ratio of 0.98 ± 0.015.
For TCATTTCCGG, the switch fluorescence ratio was 1.046 ± 0.0072.
In the case of TCATTTCGGC, the switch fluorescence ratio is reported as 0.982 ± 0.032.
With TCATTTCTGC the switch fluorescence ratio was 1.01 ± 0.037.
With TCATTTGGAG the switch fluorescence ratio was 0.9816 ± 0.0076.
Work on TCATTTGGCA yielded a switch fluorescence ratio of 0.983 ± 0.01.
TCATTTTCCG was tested, and the switch fluorescence ratio was 0.996 ± 0.043.
TCATTTTGG showed a switch fluorescence ratio of 0.992 ± 0.015.
TCATTTTTCT showed a switch fluorescence ratio of 0.98 ± 0.021.
Work on TCATTTTTGG yielded a switch fluorescence ratio of 1 ± 0.012.
With TCCAAAGATG the switch fluorescence ratio was 0.9892 ± 0.005.
Work on TCCAAATTTT yielded a switch fluorescence ratio of 1.02 ± 0.016.
TCCAACTGCA gave a switch fluorescence ratio of 1.5 ± 0.087.
Sequence TCCAAGGGTG has a switch fluorescence ratio of 1.46 ± 0.15.
With TCCAATGATG the switch fluorescence ratio was 1.03 ± 0.018.
For TCCACGGGTA, the switch fluorescence ratio was 1.08 ± 0.068.
For TCCACTGGAT, the switch fluorescence ratio was 1.03 ± 0.013.
In the case of TCCAGACTCT, the switch fluorescence ratio is reported as 1.02 ± 0.011.
For TCCAGATTTT, the switch fluorescence ratio was 1 ± 0.012.
Work on TCCAGCCCGT yielded a switch fluorescence ratio of 1.02 ± 0.027.
In the case of TCCAGCTAAA, the switch fluorescence ratio is reported as 1.09 ± 0.014.
Work on TCCAGGAGGT yielded a switch fluorescence ratio of 1.02 ± 0.033.
With TCCAGGCGTA the switch fluorescence ratio was 1.021 ± 0.0089.
TCCAGGCTTT was tested, and the switch fluorescence ratio was 1.05 ± 0.071.
TCCAGGGGGG showed a switch fluorescence ratio of 1.18 ± 0.27.
For TCCAGGGGTC, the switch fluorescence ratio was 1.38 ± 0.13.
TCCAGGTGCG showed a switch fluorescence ratio of 2.96 ± 0.33.
TCCAGTCATT gave a switch fluorescence ratio of 0.998 ± 0.01.
TCCAGTGGCT gave a switch fluorescence ratio of 1 ± 0.017.
TCCAGTGGGA showed a switch fluorescence ratio of 1.11 ± 0.087.
In the case of TCCAGTGTCG, the switch fluorescence ratio is reported as 1.01 ± 0.056.
TCCAGTGTTG was tested, and the switch fluorescence ratio was 1.08 ± 0.071.
TCCAGTTATT gave a switch fluorescence ratio of 1 ± 0.019.
TCCATACAAG showed a switch fluorescence ratio of 0.983 ± 0.055.
TCCATAGTGA showed a switch fluorescence ratio of 1.26 ± 0.085.
In the case of TCCATCGGGA, the switch fluorescence ratio is reported as 1.14 ± 0.14.
Sequence TCCATCGGGT has a switch fluorescence ratio of 1.01 ± 0.038.
With TCCATGTGTT the switch fluorescence ratio was 1.01 ± 0.037.
In the case of TCCATTTATC, the switch fluorescence ratio is reported as 0.982 ± 0.04.
TCCCATTTTG gave a switch fluorescence ratio of 1.01 ± 0.043.
In the case of TCCCCAATAA, the switch fluorescence ratio is reported as 3.11 ± 0.39.
For TCCCCATGGT, the switch fluorescence ratio was 2.07 ± 0.068.
TCCCCCACAG showed a switch fluorescence ratio of 2.05 ± 0.22.
TCCCCGTCTG showed a switch fluorescence ratio of 1.14 ± 0.15.
TCCCCTGTCG showed a switch fluorescence ratio of 1.07 ± 0.085.
Sequence TCCCCTTGCT has a switch fluorescence ratio of 1.03 ± 0.094.
TCCCGATTGG showed a switch fluorescence ratio of 0.959 ± 0.028.
In the case of TCCCGGCCTG, the switch fluorescence ratio is reported as 1.012 ± 0.0041.
In the case of TCCCGGGGGG, the switch fluorescence ratio is reported as 1.14 ± 0.26.
Sequence TCCCGGGTTA has a switch fluorescence ratio of 1.01 ± 0.013.
With TCCCTATCAC the switch fluorescence ratio was 1.1 ± 0.042.
Sequence TCCCTTTGGG has a switch fluorescence ratio of 0.971 ± 0.038.
Work on TCCGAAACAT yielded a switch fluorescence ratio of 1.575 ± 0.011.
TCCGAAAGGG showed a switch fluorescence ratio of 1.052 ± 0.0062.
For TCCGAGGGTT, the switch fluorescence ratio was 1.214 ± 0.011.
TCCGGATTTT gave a switch fluorescence ratio of 1.01 ± 0.016.
TCCGGCGGAC gave a switch fluorescence ratio of 1.149 ± 0.0078.
Work on TCCGGCGGCC yielded a switch fluorescence ratio of 1.09 ± 0.024.
TCCGGCGGTT showed a switch fluorescence ratio of 1.01 ± 0.04.
TCCGGCGTAT gave a switch fluorescence ratio of 1.131 ± 0.0055.
TCCGGGAATT gave a switch fluorescence ratio of 1.02 ± 0.021.
TCCGGGCCCA was tested, and the switch fluorescence ratio was 1.038 ± 0.0023.
With TCCGGTATCG the switch fluorescence ratio was 1.04 ± 0.016.
TCCGTAAATT was tested, and the switch fluorescence ratio was 1.14 ± 0.013.
In the case of TCCGTGGGGG, the switch fluorescence ratio is reported as 1.09 ± 0.14.
For TCCGTGTGGG, the switch fluorescence ratio was 1.04 ± 0.028.
In the case of TCCGTTGTTT, the switch fluorescence ratio is reported as 1.03 ± 0.044.
In the case of TCCGTTTCGG, the switch fluorescence ratio is reported as 0.997 ± 0.047.
For TCCGTTTTGA, the switch fluorescence ratio was 1.001 ± 0.0095.
TCCTAAACGG gave a switch fluorescence ratio of 0.988 ± 0.03.
TCCTACGGGG showed a switch fluorescence ratio of 1.14 ± 0.18.
Sequence TCCTAGGTGT has a switch fluorescence ratio of 4 ± 0.28.
TCCTAGTTGT was tested, and the switch fluorescence ratio was 0.9798 ± 0.0013.
For TCCTATATAA, the switch fluorescence ratio was 1.03 ± 0.058.
Sequence TCCTATTAGG has a switch fluorescence ratio of 0.9888 ± 0.0054.
In the case of TCCTCATGTT, the switch fluorescence ratio is reported as 1.07 ± 0.032.
For TCCTGGAGCG, the switch fluorescence ratio was 1.08 ± 0.068.
Sequence TCCTGGATGG has a switch fluorescence ratio of 0.98 ± 0.022.
